{"source": "paper PMC4263446", "about": "(Molecular Biology of the Cell, 2014)", "proteins": {"B1": {"name": "Flag-CD73L (canonical ecto-5′-nucleotidase, long protein isoform of CD73) (enzyme, human, UniProt P21589-1 27-549, looked up)", "chain": "WELTILHTNDVHSRLEQTSEDSSKCVNASRCMGGVARLFTKVQQIRRAEPNVLLLDAGDQYQGTIWFTVYKGAEVAHFMNALRYDAMALGNHEFDNGVEGLIEPLLKEAKFPILSANIKAKGPLASQISGLYLPYKVLPVGDEVVGIVGYTSKETPFLSNPGTNLVFEDEITALQPEVDKLKTLNVNKIIALGHSGFEMDKLIAQKVRGVDVVVGGHSNTFLYTGNPPSKEVPAGKYPFIVTSDDGRKVPVVQAYAFGKYLGYLKIEFDERGNVISSHGNPILLNSSIPEDPSIKADINKWRIKLDNYSTQELGKTIVYLDGSSQSCRFRECNMGNLICDAMINNNLRHTDEMFWNHVSMCILNGGGIRSPIDERNNGTITWENLAAVLPFGGTFDLVQLKGSTLKKAFEHSVHRYGQSTGEFLQVGGIHVVYDLSRKPGDRVVKLDVLCTKCRVPSYDPLKMDEVYKVILPNFLANGGDGFQMIKDELLRHDSGDQDINVVSTYISKMKVIYPAVEGRIKFS", "modifications": "glycosylated (Asn-311/333/403)"}}, "target": "the molecule itself", "assay": "non-reducing SDS-PAGE", "data": [{"protein": "B1", "values": [{"measurement": "stoichiometry N", "value": 2}]}]}
